Assay results published in paper PMC9605714.

Target: SUMOylated Hsp82p (Hsp82p^K178C crosslinked with BMOE to Smt3p^Cys at position 178) (S. cerevisiae) (UniProt P02829)

apparent binding affinity (K app) from Aha1p titration into ATPase reactions of 1 uM Hsp82p form (PK/LDH regenerating system): 0.31 µM
B1: 6xHisMyc-tagged Aha1p (natural protein)
chain: MVVNNPNNWHWVDKNCIGWAKEYFKQKLVGVEAGSVKDKKYAKIKSVSSIEGDCEVNQRKGKVISLFDLKITVLIEGHVDSKDGSALPFEGSINVPEVAFDSEASSYQFDISIFKETSELSEAKPLIRSELLPKLRQIFQQFGKDLLATHGNDIQVPESQVKSNYTRGNQKSSFTEIKDSASKPKKNALPSSTSTSAPVSSTNKVPQNGSGNSTSIYLEPTFNVPSSELYETFLDKQRILAWTRSAQFFNSGPKLETKEKFELFGGNVISELVSCEKDKKLVFHWKLKDWSAPFNSTIEMTFHESQEFHETKLQVKWTGIPVGEEDRVRANFEEYYVRSIKLTFGFGAVL
